# Reference: US20230340132A1, “ANTI-ADENOSINE RECEPTOR (A2aR) ANTIBODIES” (NA Biotech Corp, priority 2020, published 2023)
# T1: human adenosine receptor A3 (human, UniProt P0DMS8 1-318)
# T1 construct: whole, on cells; the tag is not described; also called A3R; human A3R
# T1 sequence (looked up): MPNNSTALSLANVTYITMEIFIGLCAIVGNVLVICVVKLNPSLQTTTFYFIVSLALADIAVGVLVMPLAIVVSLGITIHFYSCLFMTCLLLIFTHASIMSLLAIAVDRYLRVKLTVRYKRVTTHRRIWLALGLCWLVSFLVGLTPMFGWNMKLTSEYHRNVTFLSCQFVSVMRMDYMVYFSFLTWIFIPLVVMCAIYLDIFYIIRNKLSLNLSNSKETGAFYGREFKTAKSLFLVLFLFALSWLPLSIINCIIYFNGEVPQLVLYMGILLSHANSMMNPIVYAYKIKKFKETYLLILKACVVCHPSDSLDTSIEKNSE
# T2: human adenosine receptor A2B (human, UniProt P29275 1-332)
# T2 construct: whole, on cells; the tag is not described; also called A2bR; human A2bR
# T2 sequence (looked up): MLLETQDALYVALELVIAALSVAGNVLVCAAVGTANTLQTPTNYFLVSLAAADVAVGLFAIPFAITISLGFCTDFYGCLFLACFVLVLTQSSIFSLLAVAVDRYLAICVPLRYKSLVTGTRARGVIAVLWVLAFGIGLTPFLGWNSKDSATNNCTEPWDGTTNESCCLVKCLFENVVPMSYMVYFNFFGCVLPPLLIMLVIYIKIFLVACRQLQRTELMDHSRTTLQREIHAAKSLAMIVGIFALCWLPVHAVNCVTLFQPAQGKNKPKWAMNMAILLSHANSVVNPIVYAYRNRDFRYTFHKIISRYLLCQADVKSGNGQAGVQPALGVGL
# Key:
# tumor = details: mice treated with A2aR antagonist; background statement; cited from earlier work
# [1] = biological target: human adenosine receptor A1 (human) (UniProt P30542); test: flow cytometry on HEK293T-A1 cells; anti-FLAG 2 ug/mL, positive control; duplicate 1
# [2] = biological target: human adenosine receptor A1 (human) (UniProt P30542); test: flow cytometry on HEK293T-A1 cells; anti-FLAG 2 ug/mL, positive control; duplicate 2
# [3] = biological target: T1, human adenosine receptor A3; test: flow cytometry on HEK293T-A3 cells; anti-FLAG 2 ug/mL, positive control; duplicate 1
# [4] = biological target: T1, human adenosine receptor A3; test: flow cytometry on HEK293T-A3 cells; anti-FLAG 2 ug/mL, positive control; duplicate 2
# [5] = biological target: T3, human adenosine A2A receptor (A2aR) (human, UniProt P29274 1-412); test: flow cytometry on HEK293T-A2A cells; anti-FLAG 2 ug/mL, positive control; duplicate 1
# [6] = biological target: T3, human adenosine A2A receptor (A2aR); test: flow cytometry on HEK293T-A2A cells; anti-FLAG 2 ug/mL, positive control; duplicate 2
# [7] = biological target: T2, human adenosine receptor A2B; test: flow cytometry on HEK293T-A2B cells; anti-FLAG 2 ug/mL, positive control; duplicate 1
# [8] = biological target: T2, human adenosine receptor A2B; test: flow cytometry on HEK293T-A2B cells; anti-FLAG 2 ug/mL, positive control; duplicate 2
# [9] = biological target: T4, mouse adenosine receptor A2A (mouse, UniProt Q60613 1-410); test: flow cytometry on HEK293T-mA2A cells; anti-FLAG 2 ug/mL, positive control; duplicate 1
# T4 construct: whole, on cells; the tag is not described; also called mouse A2aR; mouse A2R
# [10] = biological target: T4, mouse adenosine receptor A2A; test: flow cytometry on HEK293T-mA2A cells; anti-FLAG 2 ug/mL, positive control; duplicate 2
# [11] = biological target: human adenosine receptor A1 (human) (UniProt P30542); test: flow cytometry on HEK293T-A1 cells; isotype control 10 nM; duplicate 1
# [12] = biological target: human adenosine receptor A1 (human) (UniProt P30542); test: flow cytometry on HEK293T-A1 cells; isotype control 10 nM; duplicate 2
# [13] = biological target: human adenosine receptor A1 (human) (UniProt P30542); test: flow cytometry on HEK293T-A1 cells; isotype control 50 nM; duplicate 1
# [14] = biological target: human adenosine receptor A1 (human) (UniProt P30542); test: flow cytometry on HEK293T-A1 cells; isotype control 50 nM; duplicate 2
# [15] = biological target: T1, human adenosine receptor A3; test: flow cytometry on HEK293T-A3 cells; isotype control 10 nM; duplicate 1
# [16] = biological target: T1, human adenosine receptor A3; test: flow cytometry on HEK293T-A3 cells; isotype control 10 nM; duplicate 2
# [17] = biological target: T1, human adenosine receptor A3; test: flow cytometry on HEK293T-A3 cells; isotype control 50 nM; duplicate 1
# [18] = biological target: T1, human adenosine receptor A3; test: flow cytometry on HEK293T-A3 cells; isotype control 50 nM; duplicate 2
# [19] = biological target: T3, human adenosine A2A receptor (A2aR); test: flow cytometry on HEK293T-A2A cells; isotype control 10 nM; duplicate 1
# [20] = biological target: T3, human adenosine A2A receptor (A2aR); test: flow cytometry on HEK293T-A2A cells; isotype control 10 nM; duplicate 2
# [21] = biological target: T3, human adenosine A2A receptor (A2aR); test: flow cytometry on HEK293T-A2A cells; isotype control 50 nM; duplicate 1
# [22] = biological target: T3, human adenosine A2A receptor (A2aR); test: flow cytometry on HEK293T-A2A cells; isotype control 50 nM; duplicate 2
# [23] = biological target: T2, human adenosine receptor A2B; test: flow cytometry on HEK293T-A2B cells; isotype control 10 nM; duplicate 1
# [24] = biological target: T2, human adenosine receptor A2B; test: flow cytometry on HEK293T-A2B cells; isotype control 10 nM; duplicate 2
# [25] = biological target: T2, human adenosine receptor A2B; test: flow cytometry on HEK293T-A2B cells; isotype control 50 nM; duplicate 1
# [26] = biological target: T2, human adenosine receptor A2B; test: flow cytometry on HEK293T-A2B cells; isotype control 50 nM; duplicate 2
# [27] = biological target: T4, mouse adenosine receptor A2A; test: flow cytometry on HEK293T-mA2A cells; isotype control 10 nM; duplicate 1
# [28] = biological target: T4, mouse adenosine receptor A2A; test: flow cytometry on HEK293T-mA2A cells; isotype control 10 nM; duplicate 2
# [29] = biological target: T4, mouse adenosine receptor A2A; test: flow cytometry on HEK293T-mA2A cells; isotype control 50 nM; duplicate 1
# [30] = biological target: T4, mouse adenosine receptor A2A; test: flow cytometry on HEK293T-mA2A cells; isotype control 50 nM; duplicate 2
# [31] = biological target: T3, human adenosine A2A receptor (A2aR); test: cell-based or functional assay
# [32] = biological target: T1, human adenosine receptor A3; test: flow cytometry on HEK293T cells stably expressing human A3R
# [33] = biological target: T2, human adenosine receptor A2B; test: flow cytometry on HEK293T cells stably expressing human A2bR
# [34] = biological target: T4, mouse adenosine receptor A2A; test: flow cytometry on HEK293T cells stably expressing mouse A2aR
# human A2aR = biological target: T5, human A2aR (Homo sapiens, UniProt P29274); test: FACS screening of hybridoma clones on human A2aR-expressing Expi293 cells; type: binding; details: antibodies from hybridoma clones
# T5 construct: expressed in transfected cells; host or cells: Expi293
# Protocol: (§1) Serum titration was performed using Fluorescence-Activated Cell Sorting (FACS) pursuant to standard procedures. Human A2aR-expressing Expi293 cells were first added to 96-well plate (1×10^5 cells per well), 50 μl of serial diluted serum (1:50, 1;150, 1:450, 1:[…], 1:12150) from each individual mouse was incubated with cells for 30 min. on ice. After washing with FACS buffer (2% Fetal bovine serum, 2 mM EDTA in PBS), Alex Fluor 647-conjugated anti mouse IgG was added and incubated for 20 min on ice. Cells were resuspending with 100 μl FACS buffer after two times wash and ready for FACS analysis (BD LSR II Flow Cytometer, HTS). […] (MFI: mean fluorescence intensity).
# (§2) Primary screening of the hybridoma supernatants in the 96-well plates was performed using the same FACS procedure as described for serum titration except following changes: 1) Human A2aR-expressing Expi293 cells (expressing GFP) were mixed at 1:1 ratio with parental Expi293 (no A2aR expression) and added to 96-well plates (2×10^5 cells per well), 2) 50 μl hybridoma supernatant transferred from each well of 96-well plates was incubated with cells for 30 min. on ice.
# (§3) Sub-cloning was performed by limiting dilution method. In short, the positive wells identified by FACS were seeded into 96-well plate at an average density of 1 cell/well. The […] was placed in incubator for 7-10 days to allow the growth of the cells. The growth of cells was monitored periodically. At about day 4, the wells on the plate were observed under phase contrast microscopy and the wells which appeared to have single colony growing (i.e., only one clumping of hybridomas) were recorded. The cells from the single colony wells were screed by FACS using the same procedure as described for primary screening of hybridoma when the confluence of the cell reached about 50%.
# parental Expi293 cells = test: FACS screening of hybridoma clones on parental Expi293 cells; type: binding; details: antibodies from hybridoma clones
# Protocol: as §1, §2, §3
# Chain of human adenosine receptor A1 (human) (P30542 whole entry): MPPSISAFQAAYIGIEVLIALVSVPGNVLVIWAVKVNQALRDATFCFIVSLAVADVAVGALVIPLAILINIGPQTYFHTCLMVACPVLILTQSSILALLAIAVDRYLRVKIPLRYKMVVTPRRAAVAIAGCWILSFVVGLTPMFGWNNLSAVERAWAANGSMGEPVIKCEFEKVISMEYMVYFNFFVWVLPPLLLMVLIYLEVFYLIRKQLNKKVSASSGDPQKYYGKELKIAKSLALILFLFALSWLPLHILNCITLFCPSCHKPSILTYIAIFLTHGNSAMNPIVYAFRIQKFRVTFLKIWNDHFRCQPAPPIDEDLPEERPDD
# T3 sequence (P29274 whole entry): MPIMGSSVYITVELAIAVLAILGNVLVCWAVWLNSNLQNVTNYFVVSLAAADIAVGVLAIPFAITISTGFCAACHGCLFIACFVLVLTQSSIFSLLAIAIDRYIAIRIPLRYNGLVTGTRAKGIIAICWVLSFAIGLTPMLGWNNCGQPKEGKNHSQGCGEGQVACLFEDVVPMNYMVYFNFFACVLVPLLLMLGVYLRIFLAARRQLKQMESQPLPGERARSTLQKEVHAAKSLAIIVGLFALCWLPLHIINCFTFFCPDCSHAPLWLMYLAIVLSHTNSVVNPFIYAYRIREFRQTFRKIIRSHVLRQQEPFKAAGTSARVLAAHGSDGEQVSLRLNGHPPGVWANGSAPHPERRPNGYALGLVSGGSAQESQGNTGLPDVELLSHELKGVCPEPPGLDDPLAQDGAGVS
# T4 sequence (Q60613 whole entry): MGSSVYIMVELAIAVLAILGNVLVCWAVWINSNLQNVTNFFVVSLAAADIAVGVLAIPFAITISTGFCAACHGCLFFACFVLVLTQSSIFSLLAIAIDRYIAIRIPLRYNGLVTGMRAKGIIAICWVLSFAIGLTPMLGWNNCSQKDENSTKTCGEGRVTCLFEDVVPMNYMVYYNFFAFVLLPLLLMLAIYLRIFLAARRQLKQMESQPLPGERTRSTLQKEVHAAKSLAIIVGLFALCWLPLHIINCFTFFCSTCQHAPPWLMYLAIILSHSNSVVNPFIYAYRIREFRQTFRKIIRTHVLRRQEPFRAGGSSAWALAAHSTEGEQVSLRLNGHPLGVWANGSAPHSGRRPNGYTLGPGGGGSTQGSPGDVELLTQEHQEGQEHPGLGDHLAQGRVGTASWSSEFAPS
# T5 sequence (P29274 whole entry): as the sequence (P29274 whole entry) above
molecule,measurement,setting,value
Nc1nc(NCCc2ccc(O)cc2)nc2nc(-c3ccco3)nn12 [ZM241385],tumor growth,tumor,significant delay in tumor growth
"Anti-FLAG antibody (Abcam, ab72469)",Geo Mean,[1],53.3
same,Geo Mean,[2],121
same,Geo Mean,[3],48.2
same,Geo Mean,[4],47.4
same,Geo Mean,[5],183
same,Geo Mean,[6],223
same,Geo Mean,[7],78.6
same,Geo Mean,[8],50.1
same,Geo Mean,[9],70.4
same,Geo Mean,[10],105
mouse IgG2a isotype control (antibody),Geo Mean,[11],2.48
same,Geo Mean,[12],2.24
same,Geo Mean,[13],2.5
same,Geo Mean,[14],2.7
same,Geo Mean,[15],1.9
same,Geo Mean,[16],1.81
same,Geo Mean,[17],1.87
same,Geo Mean,[18],1.84
same,Geo Mean,[19],2.97
same,Geo Mean,[20],2.82
same,Geo Mean,[21],2.92
same,Geo Mean,[22],2.83
same,Geo Mean,[23],2.42
same,Geo Mean,[24],2.41
same,Geo Mean,[25],2.33
same,Geo Mean,[26],2.69
same,Geo Mean,[27],2
same,Geo Mean,[28],2.39
same,Geo Mean,[29],2.05
same,Geo Mean,[30],2.06
"anti-human A2aR monoclonal antibody 3F6-9G5 (mouse IgG2a format) (antibody, V domains shown, Tested as whole mouse IgG2a / kappa, purified from hybridoma supernatant or made recombinantly in Expi293 cells) VH: QVQLQQPGTELVKPGAPVRLSCKASGFAFTSYWMNWVRQRPGRGLEWIGRIDPSDSEAHYHHKFWGKATLTVDKSSSTVYIQLNGLTSEDSAVYYCLRSLYGKGDYWGHGTTLTVSS VL: DVLMTQTPLSLSVRLGDQASISCRSSQSLVHRNGNTYLEWYLQRPGQSPKLLIYKVSNRFSGVPDRFSGSGSGTDFTLKISRVEAEDLGVYYCYQGSHVPLTFGSGTKLEIK","IC50 (M), cAMP-Glo assay of NECA-induced cAMP in HEK293 cells stably expressing human A2aR",[31],1.57e-09 M
same,binding result,[32],"no binding (tested: 2, 10 and 50 nM tested)"
same,binding result,[33],"no binding (tested: 2, 10 and 50 nM tested)"
same,binding result,[34],"no binding (tested: 2, 10 and 50 nM tested)"
"anti-human A2aR monoclonal antibody 3F8-12E9 (antibody, mouse IgG2a, V domains shown) VH: QVQLQQPGTELVKPGAPVKLSCKASGFTFTRYWMNWVKQRPGRGLEWIGRIDPSDSETHYNHKFWGKATLTVDKSSSTAYIQLNSLTSEDSAVYYCLRSLYGKGDYWGQGTTLTVSS VL: DVLMTQTPLSLSVGLGDQASISCRSSQSIVHSNGNTYLEWYLQRPGQSPKLLIYKVSNRFSGVPDRFSGSGSGTDFTLKISRVEAEDLGVYYCYQGSHVPLTFGSGTKLEIK","IC50 (M), cAMP-Glo assay of NECA-induced cAMP in HEK293 cells stably expressing human A2aR",[31],4.35e-09 M
same,binding to human A2aR-expressing cells (FIG. 2),human A2aR,specific binding
same,binding to parental Expi293 cells (FIG. 2),parental Expi293 cells,not to parental Expi293 cells
